Data as given in IntAct's records for PubMed 31031754.

B1: Phosphatidylinositol 4,5-bisphosphate 3-kinase catalytic subunit delta isoform (Homo sapiens), O00329 (parent)
chain: MPPGVDCPMEFWTKEENQSVVVDFLLPTGVYLNFPVSRNANLSTIKQLLWHRAQYEPLFHMLSGPEAYVFTCINQTAEQQELEDEQRRLCDVQPFLPVLRLVAREGDRVKKLINSQISLLIGKGLHEFDSLCDPEVNDFRAKMCQFCEEAAARRQQLGWEAWLQYSFPLQLEPSAQTWGPGTLRLPNRALLVNVKFEGSEESFTFQVSTKDVPLALMACALRKKATVFRQPLVEQPEDYTLQVNGRHEYLYGSYPLCQFQYICSCLHSGLTPHLTMVHSSSILAMRDEQSNPAPQVQKPRAKPPPIPAKKPSSVSLWSLEQPFRIELIQGSKVNADERMKLVVQAGLFHGNEMLCKTVSSSEVSVCSEPVWKQRLEFDINICDLPRMARLCFALYAVIEKAKKARSTKKKSKKADCPIAWANLMLFDYKDQLKTGERCLYMWPSVPDEKGELLNPTGTVRSNPNTDSAAALLICLPEVAPHPVYYPALEKILELGRHSECVHVTEEEQLQLREILERRGSGELYEHEKDLVWKLRHEVQEHFPEALARLLLVTKWNKHEDVAQMLYLLCSWPELPVLSALELLDFSFPDCHVGSFAIKSLRKLTDDELFQYLLQLVQVLKYESYLDCELTKFLLDRALANRKIGHFLFWHLRSEMHVPSVALRFGLILEAYCRGSTHHMKVLMKQGEALSKLKALNDFVKLSSQKTPKPQTKELMHLCMRQEAYLEALSHLQSPLDPSTLLAEVCVEQCTFMDSKMKPLWIMYSNEEAGSGGSVGIIFKNGDDLRQDMLTLQMIQLMDVLWKQEGLDLRMTPYGCLPTGDRTGLIEVVLRSDTIANIQLNKSNMAATAAFNKDALLNWLKSKNPGEALDRAIEEFTLSCAGYCVATYVLGIGDRHSDNIMIRESGQLFHIDFGHFLGNFKTKFGINRERVPFILTYDFVHVIQQGKTNNSEKFERFRGYCERAYTILRRHGLLFLHLFALMRAAGLPELSCSKDIQYLKDSLALGKTEEEALKHFRVKFNEALRESWKTKVNWLAHNVSKDNRQ

Variants of: B1
Conditions: with p85a_human PIK3R1, P27986
Chain of p85a_human PIK3R1, P27986 (P27986 whole entry): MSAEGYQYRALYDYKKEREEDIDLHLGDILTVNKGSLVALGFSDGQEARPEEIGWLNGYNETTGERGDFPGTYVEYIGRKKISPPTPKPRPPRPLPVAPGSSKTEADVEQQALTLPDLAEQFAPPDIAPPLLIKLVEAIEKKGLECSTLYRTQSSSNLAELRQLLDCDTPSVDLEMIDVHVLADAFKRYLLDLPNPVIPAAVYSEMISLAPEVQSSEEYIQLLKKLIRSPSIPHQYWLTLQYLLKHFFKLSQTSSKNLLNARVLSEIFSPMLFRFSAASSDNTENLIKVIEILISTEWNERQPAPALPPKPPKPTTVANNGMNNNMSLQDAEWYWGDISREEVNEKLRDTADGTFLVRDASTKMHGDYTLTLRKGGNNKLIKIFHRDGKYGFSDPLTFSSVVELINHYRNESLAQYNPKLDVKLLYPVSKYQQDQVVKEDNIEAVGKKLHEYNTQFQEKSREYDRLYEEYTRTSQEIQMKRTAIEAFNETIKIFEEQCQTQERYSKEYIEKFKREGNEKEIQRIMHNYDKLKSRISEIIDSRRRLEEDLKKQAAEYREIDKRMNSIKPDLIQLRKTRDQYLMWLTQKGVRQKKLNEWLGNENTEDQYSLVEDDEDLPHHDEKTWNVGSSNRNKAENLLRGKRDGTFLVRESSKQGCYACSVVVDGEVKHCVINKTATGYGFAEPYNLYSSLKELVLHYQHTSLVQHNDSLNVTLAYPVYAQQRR

Variant	effect of a mutation on the interaction
Y524S	with no effect
